Assay results as given in publication PMC5836133, “The intracellular immune receptor Rx1 regulates the DNA-binding activity of a Golden2-like transcription factor”.
Where “and” joins values, the source holds several entries; their conditions need not be identical. Identical values can stand only once.

T1: NbGlk1(83-402) (Nicotiana benthamiana)
T1 chain: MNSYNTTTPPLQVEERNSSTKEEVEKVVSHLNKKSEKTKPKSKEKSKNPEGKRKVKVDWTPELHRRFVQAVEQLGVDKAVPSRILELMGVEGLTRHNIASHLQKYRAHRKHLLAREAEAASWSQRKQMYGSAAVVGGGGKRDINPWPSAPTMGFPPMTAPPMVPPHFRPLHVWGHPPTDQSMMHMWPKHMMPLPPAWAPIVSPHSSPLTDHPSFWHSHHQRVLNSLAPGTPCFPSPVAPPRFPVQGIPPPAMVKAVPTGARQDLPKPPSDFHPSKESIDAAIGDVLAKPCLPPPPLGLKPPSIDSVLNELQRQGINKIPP

T2: NbGlk1(83-243) (Nicotiana benthamiana)
T2 chain: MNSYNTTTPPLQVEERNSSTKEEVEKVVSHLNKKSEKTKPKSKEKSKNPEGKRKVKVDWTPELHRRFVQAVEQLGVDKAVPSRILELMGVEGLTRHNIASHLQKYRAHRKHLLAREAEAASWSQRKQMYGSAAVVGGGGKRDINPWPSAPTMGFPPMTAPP

T3: NbGlk1(83-243) (Nicotiana benthamiana, UniProt A0A1S4ALG4 83-252)
T3 sequence: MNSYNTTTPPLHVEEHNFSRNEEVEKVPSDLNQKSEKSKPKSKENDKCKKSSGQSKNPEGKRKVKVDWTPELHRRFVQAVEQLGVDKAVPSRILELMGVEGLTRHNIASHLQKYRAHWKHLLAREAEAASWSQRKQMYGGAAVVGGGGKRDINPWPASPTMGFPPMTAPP

T4: NbGlk1(83-402) (Nicotiana benthamiana, UniProt A0A1S4ALG4 83-410)
T4 sequence: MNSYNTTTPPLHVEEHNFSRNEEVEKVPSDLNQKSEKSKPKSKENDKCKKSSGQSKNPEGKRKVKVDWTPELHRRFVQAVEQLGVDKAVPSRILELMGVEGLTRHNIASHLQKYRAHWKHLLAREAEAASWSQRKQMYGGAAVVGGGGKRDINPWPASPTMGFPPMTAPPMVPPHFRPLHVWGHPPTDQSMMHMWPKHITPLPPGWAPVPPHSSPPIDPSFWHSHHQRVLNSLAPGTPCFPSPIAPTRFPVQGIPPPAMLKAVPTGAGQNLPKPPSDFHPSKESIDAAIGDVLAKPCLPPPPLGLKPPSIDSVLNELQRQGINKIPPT


Assays:
[1] = molecular target: T1, NbGlk1(83-402); test: fluorescence anisotropy; Fluorescence anisotropy: 20 mM Tris-HCl pH 7.4, 140 mM NaCl, 1 mM DTT, 10 nM labelled DNA; temperature not stated. PBM conditions as in cited protocols.; settings: protein: recombinant, tags: His6 (pET14b), annealed complementary oligonucleotides
[2] = molecular target: T2, NbGlk1(83-243); test: as above; settings: protein: recombinant, tags: His6 (pET14b), annealed complementary oligonucleotides
[3] = molecular target: T3, NbGlk1(83-243); test: fluorescence anisotropy; settings: 20 mM Tris-HCl pH 7.4, 140 mM NaCl, 1 mM DTT, 10 nM fluorescein-labelled dsDNA, temperature not stated, Kd unit uM inferred from text (Kd >1 uM)
[4] = molecular target: T4, NbGlk1(83-402); test: fluorescence anisotropy; settings: 20 mM Tris-HCl pH 7.4, 140 mM NaCl, 1 mM DTT, 10 nM fluorescein-labelled dsDNA, temperature not stated, Kd unit uM inferred from text (Kd >1 uM)
[5] = molecular target: T4, NbGlk1(83-402); test: fluorescence anisotropy; no Rx1 (Table 2 series); 20 mM Tris-HCl pH 7.4, 140 mM NaCl, 1 mM DTT; 10 nM fluorescein-labelled dsDNA; temperature not stated; Kd unit uM inferred from text (Kd >1 uM); settings: protein: recombinant; tags: His6 (pET14b); label: 6-carboxyfluorescein end label on FA-1; annealed complementary oligonucleotides
[6] = molecular target: T3, NbGlk1(83-243); test: fluorescence anisotropy; no Rx1; 20 mM Tris-HCl pH 7.4, 140 mM NaCl, 1 mM DTT; 10 nM fluorescein-labelled dsDNA; temperature not stated; Kd unit uM inferred from text (Kd >1 uM); settings: protein: recombinant; tags: His6 (pET14b); label: 6-carboxyfluorescein end label on FA-1; annealed complementary oligonucleotides
[7] = molecular target: T4, NbGlk1(83-402); test: as above; settings: protein: recombinant; tags: His6 (pET14b); label: 6-carboxyfluorescein end label on FA-1; annealed complementary oligonucleotides
[8] = test system: NbGlk1(1-243) (Nicotiana benthamiana); test: fluorescence anisotropy; settings: 20 mM Tris-HCl pH 7.4, 140 mM NaCl, 1 mM DTT, 10 nM fluorescein-labelled dsDNA, temperature not stated, Kd unit uM inferred from text (Kd >1 uM)
[9] = label: 6-carboxyfluorescein end label on FA-3
[10] = label: 6-carboxyfluorescein end label on FA-1
[11] = label: 6-carboxyfluorescein end label on FA-5

Row | Binder | Kd [1, 9] | Kd [2, 9] | Kd ([3]; + Rx1(1-144)) | Kd ([3]; + Rx1(1-489)) | Kd ([3]; no Rx1) | Kd ([4]; + Rx1(1-144)) | Kd ([4]; + Rx1(1-489)) | Kd ([4]; + Rx1(GST-1-144)) | Kd ([4]; no Rx1 (Table 2 series)) | Kd ([4]; no Rx1) | Kd [1, 10] | Kd [2, 10] | Kd [5] | Kd [6] | Kd [7] | Kd [1, 11] | Kd [2, 11] | Kd ([8]; + Rx1(1-144)) | Kd ([8]; + Rx1(1-489)) | Kd ([8]; no Rx1, text: only a weak affinity)
1 | AGATTT (concatenated AGATTTCC; FA-3/FA-4) (dsDNA) DNA 1: CAGATTTCCACAGATTTCCACAGATTTCCACAGATTTCCACAGATTTCCC DNA 2: GGGAAATCTGTGGAAATCTGTGGAAATCTGTGGAAATCTGTGGAAATCTG | 160 nM and 220 nM | 230 ± 10 nM | 0.76 µM | 0.65 µM | 0.23 µM | 0.46 µM | 0.34 µM | 0.73 µM | 0.22 µM | 0.16 µM | – | – | – | – | – | – | – | – | – | –
2 | No site (FA-1/FA-2) (dsDNA) DNA 1: CACTGTGACACACTGTGACACACTGTGACACACTGTGACACACTGTGACC DNA 2: GGTCACAGTGTGTCACAGTGTGTCACAGTGTGTCACAGTGTGTCACAGTG | – | – | – | – | – | – | – | – | – | – | 320 nM and 180 nM | 330 ± 20 nM | 320 ± 30 nM | 330 ± 20 nM | 180 ± 10 nM | – | – | – | – | –
3 | GATATC (concatenated GGATATCC; FA-5/FA-6) (dsDNA) DNA 1: CGGATATCCACGGATATCCACGGATATCCACGGATATCCACGGATATCCC DNA 2: GGGATATCCGTGGATATCCGTGGATATCCGTGGATATCCGTGGATATCCG | – | – | 0.4 µM | 0.5 µM | 0.18 µM | 0.3 µM | 0.19 µM | 0.34 µM | 0.11 µM | 0.08 µM | – | – | – | – | – | 80 nM and 110 nM | 180 ± 10 nM | > 1 µM | > 1 µM | > 1 µM
